In experiment [1] the target is microtubules (MTs) of cultured rat hippocampal neurons (rat (endogenous in hippocampal neurons)) (UniProt P68370). Nature of the experiment: FRAP fitted with a reaction-diffusion simulation.
Experiment [2] shares this target. Nature of the experiment: FRAP fitted with a reaction-diffusion simulation. This is another data set of the same source.
Experiment [3] has the same target. Nature of the experiment: FRAP fitted with a reaction-diffusion-advection simulation.

pKd: −log10 of the molar value.

As for “GFP-MAP2B expressed in cultured rat hippocampal neurons (from UniProt P11137-1 1-1827) (natural protein)”, the pKd in experiment [1] is 6.00.
As to “GFP-MAP2C, wild type (pAcGFP-His-MAP2C), expressed in cultured rat hippocampal neurons (from UniProt P11137-2 1-471) (natural protein)”, the results for the pKd in experiment [2], in experiment [3] and in experiment [1] were 6.00, 5.52 and 5.35, respectively.

Values taken from publication doi:10.1101/2023.04.26.538370.
